Experimental data reported in US8754043B2, “Epidermal growth factor compositions” (Bharat Biotech International Limited, priority 2005, dated 2014).

Assays:
[1] = tested on: rabbits; assay: Pre-clinical safety studies (acute 8 days, sub-acute 30 days) in rabbits; assay type: in vivo
Protocol: (§1) Various combinations of EGF were thus carried out and the combinations were subjected to thermal stability as per ICH guidelines. Pre-clinical studies for safety of the formulations with varying percentages of EGF, were conducted in both rats and rabbits, as per the approved guidelines. Briefly, acute toxicity studies were carried out for 8 days, sub-acute studies were carried on for 30 days and ocular irritation study was conducted for 7 days.

[2] = tested on: rats; assay: Pre-clinical safety studies (acute 8 days, sub-acute 30 days) in rats; assay type: in vivo
Protocol: as §1

## CC[C@H](C)[C@@H]1NC(=O)[C@H](Cc2ccc(O)cc2)NC(=O)CNC(=O)[C@H](C(C)C)NC(=O)[C@H](C(C)C)NC(=O)[C@@H](NC(=O)[C@H](CC(N)=O)NC(=O)[C@@H]2CSSC[C@@H]3NC(=O)[C@H](Cc4ccc(O)cc4)NC(=O)CNC(=O)[C@H](CC(=O)O)NC(=O)[C@H](Cc4c[nH]cn4)NC(=O)[C@H](CO)NC(=O)[C@H](CC(C)C)NC(=O)[C@@H]4CCCN4C(=O)[C@@H](NC(=O)[C@H](CCC(=O)O)NC(=O)[C@H](CO)NC(=O)[C@H](CC(=O)O)NC(=O)[C@H](CO)NC(=O)[C@@H](N)CC(N)=O)CSSC[C@H](NC(=O)[C@H](C(C)C)NC(=O)CNC(=O)[C@H](CC(=O)O)NC(=O)[C@H](Cc4c[nH]cn4)NC(=O)[C@H](CC(C)C)NC3=O)C(=O)N[C@@H](CCSC)C(=O)N[C@@H](Cc3ccc(O)cc3)C(=O)N[C@@H]([C@@H](C)CC)C(=O)N[C@@H](CCC(=O)O)C(=O)N[C@@H](C)C(=O)N[C@@H](CC(C)C)C(=O)N[C@@H](CC(=O)O)C(=O)N[C@@H](CCCCN)C(=O)N[C@@H](Cc3ccc(O)cc3)C(=O)N[C@@H](C)C(=O)N2)CSSC[C@@H](C(=O)N[C@@H](CCC(N)=O)C(=O)N[C@@H](Cc2ccc(O)cc2)C(=O)N[C@@H](CCCNC(=N)N)C(=O)N[C@@H](CC(=O)O)C(=O)N[C@@H](CC(C)C)C(=O)N[C@@H](CCCCN)C(=O)N[C@@H](Cc2c[nH]c3ccccc23)C(=O)N[C@@H](Cc2c[nH]c3ccccc23)C(=O)N[C@@H](CCC(=O)O)C(=O)N[C@@H](CC(C)C)C(=O)N[C@@H](CCCNC(=N)N)C(=O)O)NC(=O)[C@H](CCCNC(=N)N)NC(=O)[C@H](CCC(=O)O)NC(=O)CNC1=O [EGF, Epidermal Growth Factor]
[1]; control vs treated
  biochemical parameters: within the normal range and no abnormality was observed
  growth rate and food consumption: normal & did not differ significantly
  hematological parameters: no observable changes
[1]; treated groups
  anti-body response: no observable anti-body response
[2]; control vs treated
  biochemical parameters: within the normal range and no abnormality was observed
  growth rate and food consumption: normal & did not differ significantly
  hematological parameters: no observable changes
[2]; treated groups
  anti-body response: no observable anti-body response
